Assay: label from the status in PepcDB records
For “MADVVVGIQWGDEGKGKIVDRIAKDYDFVVRYQGGHNAGHTIVHKGVKHSLHLMPSGVLYPKCKNIISSAVVVSVKDLCEEISAFEDLENRLFVSDRAHVILPYHAKKDAFKEKSQNIGTTKKGIGPCYEDKMARSGIRMGDLLDDKILEEKLNAHFKAIEPFKKAYDLGENYEKDLMGYFKTYAPKICPFIKDTTSMLIEANQKGEKILLEGAQGTLLDIDLGTYPFVTSSNTTSASACVSTGLNPKAINEVIGITKAYSTRVGNGPFPSEDTTPMGDHLRTKGAEFGTTTKRPRRCGWLDLVALKYACALNGCTQLALMKLDVLDGIDAIKVCVAYERKGERLEIFPSDLKDCVPIYQTFKGWEKSVGVRKLDDLEPNVREYIRFIEKEVGVKIRLISTSPEREDTIFL”, the protein production was “failed”.
With “MADWLIGLIMGAVEGLTEFLPVSSTGHMILTGHLIGFDDERAKVFEVVIQLGSILAVVVIFWKRLWSLVGIGKVTDGPSLNLLHIIIGMIPAGVLGVLFHSTIKEGLFGPGPVVISLVAGGILMIVAEKFSKPSTARTLDEITYKQAFTIGMFQCLALWPGFSRSGSTISGGLLARVSHTAAAEYTFILAVPMMVAASGLDLIKSWDVLSSADITLFVTGFVTAFVVAMLAIVSFLKLLSRVKLTPFAYYRFILAAVFYFFIM” the protein production was “failed”.
For “MAEAGDENLYAAARDIARALGKDPSAAGDILQILSGYGASGNRGGDPRPTPSRGGSNVNFDRALTSLERQISSYIVEDRPIWSDPVDSRTFLDSVDELLAIAGDLRSMAGDKSVAVCQSRADELIQQVMFRLQEEFGFVMDRAPDSFDSDDEFPGEEDNDTSDGVIVARPITDYKIVIEALQSSVIGDLNAIAVRMVAGGFAKECSRVYSSRRREFLEESLSRLHLRGLSMEEVQESPWQDLEDEIDRWIKAVTLIFHVFFPSERLLCDRVFSDLPVSSVTDLSFMEVCRGTTTQLLNFADAIALGSRLPERLFKVVDLYEAMQDLIPKMETLFSDRYCSPLRHEALAIHKRLGEAIRGIFMELENLIRRDPPKTAFPGGGIHPITRYVMNYLRAACKSRQSLEQILDQTGNETGSDTRPLSVQIIWVLELLESNLEGKKRTYRDPSLCFLFMMNNDKYILDKAKDNELGLVLGEDWIVKHAAKLRQYHSNYRRSSWNQVVGLLRTDGPYPKLVENLRLFKSQFDEVCKVQSQWVVSDGQLREELRSSVAGIVSPAYSNFIRRLKESPEINGRRGEPFIPYTVEDVEFIIKRLFKESSS”, the protein production was “not failed”.
In the case of “MAEARPDSLTRSRAAKPAGEGAAFSPLYRQIKELLVQSLDRGEWKPGELIPSEIDLAARFQVSQGTVRKAVDELAAEHLLLRRQGKGTFVATHHEARVRYRFLRLAPDEEGEGGRAESRILECRRLRAPAEIARALELRAGETVVTIRRQLSMNHMPTVIDDLWLPGTHFRGLTLELLTASKAPLYGLFESEFGVSMVRADEKLRAVAASPEIAPLLGVEPGRPLLQVDRISYTYGDRPMEVRRGLYLTDHYHYRNSLN”, the protein production is reported as “not failed”.
In the case of “MAEASIQIEVVYATVQRQVLMTVDVPAGSSVRQALALCGMDREFPELDLSHCPVGIFGKVVADPAARVLEAGERIEIYRPLLADPMEIRRLRAAKAREKRTLPG”, the protein production is reported as “failed”.
In the case of “MAEDKTKPSELDQGKYDADDNVKIICLGDSAVGKSKLMERFLMDGFQPQQLSTYALTLYKHTATVDGRTILVDFWDTAGQERFQSMHASYYHKAHACIMVFDVQRKVTYRNLSTWYTELREFRPEIPCIVVANKIDADINVTQKSFNFAKKFSLPLYFVSAADGTNVVKLFNDAIRLAVSYKQNSQDFMDEIFQELENFSLEQEEEDVPDQEQSSSIETPSEEAASPHS”, the protein production is reported as “not failed”.
In the case of “MAEEAALNFADFYDAELALHNAHFRVTAAVGRSDRVLDVGCGAGQTTRDAARAAEAGRAHGIDLSATMLEIARRRSAEEGLPNATFELADAQNYHFAKGEFDLCISRFGVMFFADPAVAFANIANAVRPGGRFIFMVWQGRDHNEWATAIHEALDPDSTGPVAAGKAFSLSETSVTSGLLETAGFTAIEFREINEPVFYGPDPETALVTIQTFENVKNALDRPATTAEIRARLLDMLEAHQTPHGVQFDSRAWLITGGRYGDSPPCFIGDFRSA”, the protein production is reported as “failed”.
With “MAEEAKAKGNAAFSSGDFTTAINHFTEAIALAPTNHVLFSNRSAAHASLHQYAEALSDAKETIKLKPYWPKGYSRLGAAHLGLNQFELAVTAYKKGLDVDPTNEALKSGLADAEASVARSRAAPNPFGDAFQGPEMWTKLTSDPSTRGFLQQPDFVNMMQEIQKNPSSLNLYLKDQRVMQSLGVLLNVKFRPPPPQGDEAEVPESDMGQSSSNEPEVEKKREPEPEPEPEVTEEKEKKERKEKAKKEKELGNAAYKKKDFETAIQHYSTAIEIDDEDISYLTNRAAVYLEMGKYNECIEDCNKAVERGRELRSDYKMVARALTRKGTALTKMAKCSKDYEPAIEAFQKALTEHRNPDTLKRLNDAERAKKEWEQKQYFDPKLGDEEREKGNDFFKEQKYPEAIKHYTEAIKRNPNDHKAYSNRAASYTKLGAMPEGLKDAEKCIELDPTFSKGYSRKAAVQFFLKEYDNAMETYQAGLEHDPSNQELLDGVKRCVQQINKANRGDLTPEELKERQAKGMQDPEIQNILTDPVMRQVLSDLQENPSAAQKHMQNPMVMNKIQKLISAGIVQMK” the protein production was “failed”.
For “MAEHGETTEDGDSEIDYEFLAELSALLGVDAVQLAKSQEEEEHKERMKMKKGFNSQMRSEAKRLKTFETYDTFRSWTPQEMAAAGFYHTGVRLGVQCFCCSLILFGNSLRKLPIERHKKLRPECEFLLGKDVGNIGKYDIRVKRPEKMLRGGKARYHEEEARLESFEDWPFYAHGTSPRVLSAAGFVFTGKRDTVQCFSCGGSLGNWEEGDDPWKEHAKWFPKCEFLQSKISSEEIAQYIQGYGGFVHVTGEHFVNSWVRRELPMVSGRKDIVQCFSCGGCMENWAEGDDPIQEHNKFFPK”, the protein production was “failed”.
In the case of “MAEIDYKKVTGMIHSTESFGSVDGPGIRFIIFMQGCKMRCQYCHNPDTWEMETNNSKERTVEDVLKEALRYKHFWGKDGGITVSGGEAMLQIDFITALFIEAKKLGIHTTLDTCGFAYRATPEYHAILEKLLDVTDLVLLDLKEIDSEQHKIVTRQSNKNILQFARYLSDRGTPVWIRHVLVPGLTDIDDHLKRLGEFVQTLDNVDKFEVLPYHTMGEFKWRELGIPYPLAGVKPPTPERVKNAKDIMKTESYTEYLKRIQN”, the protein production is reported as “not failed”.
In the case of “MAEIIDKTLNMLVTGQRARVIQIKGKGNSRKRLLEMGMVPGTVLSVTKKAPLGDPVDFKLKGYNLSLRKQEAEMIVVEPLEG”, the protein production is reported as “failed”.
With “MAEKKKKNKKQLSSFSILFIILIVLGIVTVLLNGQPFTPREIDGKMVDHVVGAKLSDIIMAPFNGFKDAIEINIFILVLGGFLNIVTQTGALEAGIQSVVKKLKGNELKIIPILMILFSIGGSTYGMAEETIPFYGLLSATMVAAGFDTFVAVGTVLLGAGSGVIGSTVNPFSTGVAMDALRGIGIQPNTGIILIVGAILWAASTSYSIFIVMRYAKKVKADKGSTILSLQEQEDMEKTYGQAASKEMPFTNRHKKILMVFAFCFVIMIVSLIPWNDFGVTIFKGWTSVLTGNSFGDWYFGDLAMWFFLLGIIAALIGRFTEKETIEAFIDGAKDMLSVVLIIVVARGASVLMSKTYLDSFILDKAAGLLQGLSPVLFVIGAFVLYLGLSFLIPSTSGLAYVSIPVMGALAKNIGLSPEVMVMIFASGCGLINLITPTSGVVMGGLEISKVQYATWTKFMAKPMIVLGLINLIILIGAMLLFS” the protein production was “failed”.
For “MAEKPKLHYFNARGRMESTRWLLAAAGVEFEEKFIKSAEDLDKLRNDGYLMFQQVPMVEIDGMKLVQTRAVLNYIASKYNLYGKDIKERALIDMYIEGIADLGEMILLLPVCPPEEKDAKLALIKEKIKNRYFPAFEKVLKSHGQDYLVGNKLSRADIHLVELLYYVEELDSSLISSFPLLKALKTRISNLPTVKKFLQPGSPRKPPMDEKSLEEARKIFRF”, the protein production was “not failed”.
In the case of “MAELEKTFALIKPDAVRAGKAQEIMQLIELNGFTIIAKQKLQLTRARAEEFYGEHKGKEFFPKLVNFMTSGPIWALVLAKPGAILAWRALMGPTNVFKARAEQPKCLRALYGTDGTQNATHGSDSPISAAREIKFFFPTLSGDPTIYAEPTAAAEYITKRIQPALAKALAALAREKPSADKFEAITFVAGYLLQNNPNKPKV”, the protein production is reported as “not failed”.
With “MAELKSLAKDTAIYGASSIIGKFLNYFLVPIYTFSLPAASGGYGVITKMYAIVALLLVVLTFGMETGFFRFANKGDDDPKKVYSVSLLMVGGVSLLFLLLCLVFLNPIAGLMGYSEHPWYLGMMLIVLAMDAIQAIPFAYLRYKKRPIKFAGLKLLFIFVSILLNILYFVVMKGDDVGVAFLINLICSFVVMLGLIPEFREFRYCPDRLLMKRMLYYSFPILILGVAGIVNQVGDKIIFPFVYPDKVEADVQLGIYSAATKIAMIMAMITQAFRFAYEPFVFGKSKDKDNKRIYAQAMKFFIIFTLLAFLAVMFYLDILRYIIAEDYWEGLRVVPIVMIAEMFMGIYFNLSFWYKLTDDTRWGAYFSIIACLTVVLMNIFLIPVYGYVACAWAGFTGYAIAMLLSYFVGQKKYPIAYDLRGIGCYVGLAIILYLIGEWIPIHNTVLLLAFRTVLLLLFIAYIIKRDLPLSQIPVINRIIKKK” the protein production was “not failed”.
For “MAELQMLLEEEIPGGRRALFDSYTNLERVADYCENNYIQSADKQRALEETKAYTTQSLASVAYLINTLANNVLQMLDIQASQLRRMESSINHISQTVDIHKEKVARREIGILTTNKNTSRTHKIIAPANLERPVRYIRKPIDYTILDDIGHGVKVSTQNMKMGGLPRTTPPTQKPPSPPMSGKGTLGRHSPYRTLEPVRPPVVPNDYVPSPTRNMAPSQQSPVRTASVNQRNRTYSSSGSSGGSHPSSRSSSRENSGSGSVGVPIAVPTPSPPSVFPGHPVQFYSMNRPASRHTPPTIGGSLPYRRPPSITSQTSLQNQMNGGPFYSQNPVSLAPPPPSILQVTPQLPLMGFVARVQENISDTPPPPPPVEEPVFDESPPPPPPPEDYEEEEAAVVEYSDPYAEEDPPWAPRSYLEKVVAIYDYTKDKEDELSFQEGAIIYVIKKNDDGWYEGVMNGVTGLFPGNYVESIMHYSE”, the protein production was “not failed”.
In the case of “MAEPGIDKLFGMVDSKYRLTVVVAKRAQQLLRHGFKNTVLEPEERPKMQTLEGLFDDPNAETWAMKELLTGRLVFGENLVPEDRLQKEMERIYPGEREE”, the protein production is reported as “not failed”.
For “MAEPRENLMDWLRDAHAMEQQAEQMLKAQAARIEHYPKLKARIEQHLEETLGQQRLVEASIERLGGSPSVVKDAMGKMAAFGQAMGGMTTSDEIVKGAMASYVFENLEIATYTALLGAAKTVGDVETQRMCEQILPQEEAMAKWLLEHLPELTEEFLVRDATPGVTAKK”, the protein production was “failed”.
With “MAEPSQAPTPAPAAQPRPLQSPAPAPTPTPAPSPASAPIPTPTPAPAPAPAAAPAGSTGTGGPGVGSGGAGSGGDPARPGLSQQQRASQRKAQVRGLPRAKKLEKLGVFSACKANETCKCNGWKNPKPPTAPRMDLQQPAANLSELCRSCEHPLADHVSHLENVSEDEINRLLGMVVDVENLFMSVHKEEDTDTKQVYFYLFKLLRKCILQMTRPVVEGSLGSPPFEKPNIEQGVLNFVQYKFSHLAPRERQTMFELSKMFLLCLNYWKLETPAQFRQRSQAEDVATYKVNYTRWLCYCHVPQSCDSLPRYETTHVFGRSLLRSIFTVTRRQLLEKFRVEKDKLVPEKRTLILTHFPKFLSMLEEEIYGANSPIWESGFTMPPSEGTQLVPRPASVSAAVVPSTPIFSPSMGGGSNSSLSLDSAGAEPMPGEKRTLPENLTLEDAKRLRVMGDIPMELVNEVMLTITDPAAMLGPETSLLSANAARDETARLEERRGIIEFHVIGNSLTPKANRRVLLWLVGLQNVFSHQLPRMPKEYIARLVFDPKHKTLALIKDGRVIGGICFRMFPTQGFTEIVFCAVTSNEQVKGYGTHLMNHLKEYHIKHNILYFLTYADEYAIGYFKKQGFSKDIKVPKSRYLGYIKDYEGATLMECELNPRIPYTELSHIIKKQKEIIKKLIERKQAQIRKVYPGLSCFKEGVRQIPVESVPGIRETGWKPLGKEKGKELKDPDQLYTTLKNLLAQIKSHPSAWPFMEPVKKSEAPDYYEVIRFPIDLKTMTERLRSRYYVTRKLFVADLQRVIANCREYNPPDSEYCRCASALEKFFYFKLKEGGLIDK” the protein production was “failed”.

From a protein production outcome set (Wang et al. 2014)
